Publication doi:10.1101/2020.04.14.040436

How the values were obtained:
[1] = biological target: 14-3-3ε/γ heterodimer (His6-tagged 14-3-3ε with untagged 14-3-3γ) (human) (UniProt P62258); test: SPR
[2] = biological target: His6-tagged 14-3-3ε (human) (UniProt P62258); test: SPR
[3] = biological target: human 14-3-3ε devoid of the C-terminal flexible tail (14-3-3εΔC) (human); test: SEC
human 14-3-3ε devoid of the C-terminal flexible tail (14-3-3εΔC) (human), sequence (B3KY71 whole entry, stated change not applied): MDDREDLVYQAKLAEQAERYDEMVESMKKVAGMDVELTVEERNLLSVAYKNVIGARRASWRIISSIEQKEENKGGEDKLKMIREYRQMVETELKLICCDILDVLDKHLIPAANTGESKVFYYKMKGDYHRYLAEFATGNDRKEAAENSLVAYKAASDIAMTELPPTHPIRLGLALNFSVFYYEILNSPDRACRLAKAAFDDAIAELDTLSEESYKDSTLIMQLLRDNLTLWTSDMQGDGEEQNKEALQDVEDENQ

B1: STARD1_(46-285)-S56A/L59P phosphorylated at Ser57 and Ser195 (domain or fragment)
chain: STWINQVRRRASLPGSRLEETLYSDQELAYLQQGEEAMQKALGILSNQEGWKKESQQDNGDKVMSKVVPDVGKVFRLEVVVDQPMERLYEELVERMEAMGEWNPNVKEIKVLQKIGKDTFITHELAAEAAGNLVGPRDFVSVRCAKRRGSTCVLAGMATDFGNMPEQKGVIRAEHGPTCMVLHPLAGSPSKTKLTWLLSIDLKGWLPKSIINQVLSQTQVDFANHLRKRLESHPASEARC
modifications: phosphoserine at 57; phosphoserine at 195
**Q.** Which Kd [1] does the source give for B1 here?
**A.** 15 µM

**Q.** What about the Kd [2] of the same binder?
**A.** 13 µM

**Q.** And the stoichiometry N (STARD1 per 14-3-3 subunit (2:2)) [3]?
**A.** 1

**Q.** And the stoichiometry N ([3]; scale: STARD1 per 14-3-3 subunit)?
**A.** 0.5
